Measurements from publication PMC8099429, “Membrane binding controls ordered self-assembly of animal septins” (eLife, 2021).

What was measured:
[1] = biological target: Drosophila melanogaster septin hexamers composed of His6-DSep1, DSep2, Pnut-StrepII (Drosophila melanogaster) (UniProt P42207); test: atomic force microscopy on supported lipid bilayers; 12, 24 or 60 nM hexamers for 15 min at 19°C on silica-supported bilayers of 80% PC and 20% PS in polymerization buffer; mostly fixed with 1% glutaraldehyde, also unfixed
[2] = biological target: Drosophila melanogaster septin hexamers composed of His6-DSep1, mEGFP-DSep2, and Pnut-StrepII (Drosophila melanogaster) (UniProt P42207); test: TIRF microscopy of bundles formed in solution; mEGFP-tagged hexamers diluted from 300 mM KCl into polymerization buffer with 50 mM KCl (20 mM imidazole pH 7.4), 100, 200, 500 nM; crowded onto a neutral PC bilayer with 0.1 wt-% methylcellulose; 20°C
[3] = biological target: the molecule itself; test: scanning transmission electron microscopy (STEM) with mass-per-length mapping; septins preassembled for 1 hr at 20°C in solution at 50-500 nM, no membrane; TMV rods as mass standard

Molecule: Drosophila melanogaster septin hexamers composed of His6-DSep1, DSep2, Pnut-StrepII (from UniProt P42207 1-361; P54359 1-419; P40797 1-539) (complex)
- threshold concentration for polymerization on negatively charged membranes [1]: < 12 nM

Molecule: Drosophila melanogaster septin hexamers composed of His6-DSep1, mEGFP-DSep2, and Pnut-StrepII (from UniProt P42207 1-361; P54359 1-419; P40797 1-539) (complex)
- threshold concentration for polymerization in solution [2]: 200 nM

B1: Budding yeast septin octamers composed of Cdc3, Cdc10, Cdc11, and His6-Cdc12 (complex, budding yeast (S. cerevisiae))
chain 1: MSLKEEQVSIKQDPEQEERQHDQFNDVQIKQESQDHDGVDSQYTNGTQNDDSERFEAAESDVKVEPGLGMGITSSQSEKGQVLPDQPEIKFIRRQINGYVGFANLPKQWHRRSIKNGFSFNLLCVGPDGIGKTTLMKTLFNNDDIEANLVKDYEEELANDQEEEEGQGEGHENQSQEQRHKVKIKSYESVIEENGVKLNLNVIDTEGFGDFLNNDQKSWDPIIKEIDSRFDQYLDAENKINRHSINDKRIHACLYFIEPTGHYLKPLDLKFMQSVYEKCNLIPVIAKSDILTDEEILSFKKTIMNQLIQSNIELFKPPIYSNDDAENSHLSERLFSSLPYAVIGSNDIVENYSGNQVRGRSYPWGVIEVDNDNHSDFNLLKNLLIKQFMEELKERTSKILYENYRSSKLAKLGIKQDNSVFKEFDPISKQQEEKTLHEAKLAKLEIEMKTVFQQKVSEKEKKLQKSETELFARHKEMKEKLTKQLKALEDKKKQLELSINSASPNVNHSPVPTKKKGFLR
chain 2: MDPLSSVQPASYVGFDTITNQIEHRLLKKGFQFNIMVVGQSGLGKSTLINTLFASHLIDSATGDDISALPVTKTTEMKISTHTLVEDRVRLNINVIDTPGFGDFIDNSKAWEPIVKYIKEQHSQYLRKELTAQRERFITDTRVHAILYFLQPNGKELSRLDVEALKRLTEIANVIPVIGKSDTLTLDERTEFRELIQNEFEKYNFKIYPYDSEELTDEELELNRSVRSIIPFAVVGSENEIEINGETFRGRKTRWSAINVEDINQCDFVYLREFLIRTHLQDLIETTSYIHYEGFRARQLIALKENANSRSSAHMSSNAIQR
chain 3: MSGIIDASSALRKRKHLKRGITFTVMIVGQSGSGRSTFINTLCGQQVVDTSTTILLPTDTSTEIDLQLREETVELEDDEGVKIQLNIIDTPGFGDSLDNSPSFEIISDYIRHQYDEILLEESRVRRNPRFKDGRVHCCLYLINPTGHGLKEIDVEFIRQLGSLVNIIPVISKSDSLTRDELKLNKKLIMEDIDRWNLPIYNFPFDEDEISDEDYETNMYLRTLLPFAIIGSNEVYEMGGDVGTIRGRKYPWGILDVEDSSISDFVILRNALLISHLHDLKNYTHEILYERYRTEALSGESVAAESIRPNLTKLNGSSSSSTTTRRNTNPFKQSNNINNDVLNPASDMHGQSTGENNETYMTREEQIRLEEERLKAFEERVQQELLLKRQELLQREKELREIEARLEKEAKIKQEE
chain 4: MSAATATAAPVPPPVGISNLPNQRYKIVNEEGGTFTVMLCGESGLGKTTFINTLFQTVLKRADGQQHRQEPIRKTVEIDITRALLEEKHFELRVNVIDTPGFGDNVNNNKAWQPLVDFIDDQHDSYMRQEQQPYRTKKFDLRVHAVLYFIRPTGHGLKPIDIETMKRLSTRANLIPVIAKADTLTAQELQQFKSRIRQVIEAQEIRIFTPPLDADSKEDAKSGSNPDSAAVEHARQLIEAMPFAIVGSEKKFDNGQGTQVVARKYPWGLVEIENDSHCDFRKLRALLLRTYLLDLISTTQEMHYETYRRLRLEGHENTGEGNEDFTLPAIAPARKLSHNPRYKEEENALKKYFTDQVKAEEQRFRQWEQNIVNERIRLNGDLEEIQGKVKKLEEQVKSLQVKKSHLK
notes: Cdc3, budding yeast septin; Cdc10, budding yeast septin; Cdc11, budding yeast septin; Cdc12, budding yeast septin; Two copies of each chain follow from the word octamer with four named subunits; also called yeast septins; budding yeast septins; source: purified as described (Bertin et al., 2008); copies: 2 + 2 + 2 + 2
- binding result [3]: binds
